B1: 2H6 phage Fv (VH-(Gly4Ser)-pVII / VL-(Gly4Ser)-pIX heterodimer displayed on phage) (other)
VH: MAEVQLLEEVNLVESGGGLVKPGGSLKLSCAASGFTFSSYAMSWVRQTPEKRLEWVASINNGGKIYYPDSVKGRFTISRDNARNILYLQMSSLRSEDTAMYYCVKRDSSVYDYAMDNWGQGTSVTVSSGGGGSGMEQVADFDTIYQAMIQISVVLCFALGIIAGGQR
VL: VLTQSPAIMYASPGEKVTITCSASSSVSYMHWFQQKPGTSPKLWIYSTSKLASGVPARFSGSGSGTSYSLTISRMEAEDVATYYCQQRSSYTVTFGAGTKLELKRTSGGGGSMSVLVYSFASFVLGWCLRSGITYFTRLMETSS
notes: also called 2H6 phage antibody; 2H6-VHVL
B2: 92H2 phage Fv (VH-(Gly4Ser)-pVII / VL-(Gly4Ser)-pIX heterodimer displayed on phage) (other)
VH: MAEVQLQQSGPELKKPGETVKISCKTSGYSFTNYGMNWVKQAPGKGLKWMGWINTYTGEPTYADDFRGRFAFSLATSASTAYLQIINLKNEDTATYFCETYDSPLGDYWGQGTTVTVSSSSGGGGSGMEQVADFDTIYQAMIQISVVLCFALGIIAGGQR
VL: DIGLTQSPASLAVSLGQRATISCRASKSVSTSGYNYMHWYQQKPGQPPKLLIYLASNLASGVPARFSGSGSGTDFTLNIHPVEEEDAATYYCLYSREFPPWTFGGGTKLEIKRSGGGGSMSVLVYSFASFVLGWCLRSGITYFTRLMETSS
notes: also called 92H2 phage antibody; 92H2-VHVL
B3: 21H3 phage Fv (VH-(Gly4Ser)-pVII / VL-(Gly4Ser)-pIX heterodimer displayed on phage) (other)
VH: MAEVQLLEVQLQQSGPVLVKPGGSVKMSCKASEYTLTSYLFQWVKQKSGQGLEWIGYIYPYNGGTRYNEKFRGKATLTSDKSSNTAYLELSSLTSEDSAVYYCARSSMSDPGANWGPGTLVTVSGGGGSGMEQVADFDTIYQAMIQISVVLCFALGIIAGGQR
VL: DIQMTQSPSSLSASLGERVSLTCRASQEISGYLYWLQQKPDGTIKRLIYAASTLDSGVPKRFSGSRSGSDYSLTISSLESEDFADYYCLQYASYPRTFGGGTKVEIKRADSGGGGSMSVLVYSFASFVLGWCLRSGITYFTRLMETSS
notes: also called 21H3 phage antibody; 21H3-VHVL

This is an account of results in patent US20030186322A1 (Scripps Research, published 2003).

In the assay the target is T1, BSA (bovine serum albumin) (bovine, UniProt P02769 25-607).
T1 construct: Carrier protein without hapten; also called BSA-gold complex
T1 sequence (P02769 25-607 limits assumed): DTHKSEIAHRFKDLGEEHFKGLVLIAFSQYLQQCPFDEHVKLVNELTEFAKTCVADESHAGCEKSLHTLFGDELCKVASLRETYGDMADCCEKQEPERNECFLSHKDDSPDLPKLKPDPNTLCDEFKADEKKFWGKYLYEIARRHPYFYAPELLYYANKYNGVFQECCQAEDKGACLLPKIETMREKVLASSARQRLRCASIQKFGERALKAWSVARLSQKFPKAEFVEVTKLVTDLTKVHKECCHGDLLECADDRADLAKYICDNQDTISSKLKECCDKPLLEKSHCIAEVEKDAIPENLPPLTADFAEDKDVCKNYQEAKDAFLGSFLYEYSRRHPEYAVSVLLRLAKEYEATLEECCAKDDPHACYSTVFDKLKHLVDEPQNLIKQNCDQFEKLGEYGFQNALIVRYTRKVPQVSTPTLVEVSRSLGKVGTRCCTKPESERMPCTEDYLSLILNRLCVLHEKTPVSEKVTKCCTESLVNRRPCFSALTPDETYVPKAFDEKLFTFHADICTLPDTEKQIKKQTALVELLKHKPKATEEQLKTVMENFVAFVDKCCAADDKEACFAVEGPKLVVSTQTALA
Briefly: phage ELISA. Here is the method: The supernatant of the phage culture described above was directly used for ELISA. Microtiter wells (Corning) were coated with 25 μl of 10 μg/ml mouse anti-Flag antibody to assay Flag constructs with pVII/pIX, with PCP-BSA for 21H3 and 2H6 constructs, and with the cocaine conjugate GNC—BSA to assay the 92H2 construct. The coated plates were then incubated at room temperature overnight and blocked with 50 μl of Blotto (4% skim milk powder in PBS). Typically, 25 μl of phage supernatant was added and the plate was incubated at 37 C. for 1 hr. After washing, 25 μl of 1/1000 dilution of horseradish peroxidase/anti-M13 conjugate (Pharmacia) in Blotto was added and incubated at 37 C. for 30 minutes. The plate was extensively washed three times with PBS/0.1% tween-20 and pipetted vigorously up and down to remove nonspecific binding phage. The plate was then developed with TMB (3,3′,5,5′-tetramethylbenzidine) substrate (Pierce) and quenched with an equal volume of 2 M H₂SO₄. The absorbance of each reaction was then read on an ELISA Plate reader at 450 nM.
In general terms: In an ELISA, binding on a coated surface is turned into a signal by an enzyme label.
Take B1: the binding result is reported as “no binding”.

Take B2: the binding result was “no binding”.

Turning to B3, the binding result was “no binding”.
